What was measured:
[1] = tested on: B. cinerea; test: Open-air field trial on snap bean (Example 4.3, AUDPC of % disease severity); type: in vivo, Botrytis cinerea; details: Switch 525 g ai/ha, GS349 20 and 40, GS2280 10 and 40, GS2303 10, 20 and 40, GS2297 20 g ai/ha, FIG. 9
Protocol: RNAi compositions, each containing a dsRNA comprising a trigger sequence (GS349, GS2280, GS2303, or GS2297) described herein were evaluated for ability to control botrytis on snap bean in open-air filed trials. All test samples were formulated with RO water, propylene glycol, a linear alcohol ethoxylate, a lignosulfanate, sodium citrate dihydate, a polyacrylic acid polymer, two biocide compositions, anhydrous citric acid, and an antifoam, all of which are readily commercially available. Formulation samples were tank mixed with a standard adjuvant, the non-ionic surfactant, Activator 90 0.125%v/v. Compositions were tested at concentrations of 10, g ai/ha, 20 g ai/ha, and 40 g ai/ha. Positive controls were a chemical standard, Switch 525 g ai/ha and a biological standard, Double Nickel LC 9.4 I/ha, both of which were also tank mixed with Activator 90 0.125% v/v. As above, an untreated check was used as a negative control.
Compositions were applied to snap bean plants using a small plot sprayer delivering 50 gallons of water per acre. A total of three applications were used for each sample and positive control. Disease state was evaluated beginning 8 days after the first application and ending 37 days after the third and final application. Percent Disease Severity was assessed and AUDPC was calculated in the same manner as noted in Example 4.1.

[2] = tested on: Botrytis cinerea B05.10 isolate; test: Greenhouse whole plant assay (tomato 'Lanai', disease severity); type: in vivo; details: final rating day (rating #3), three runs, four-week-old 'Lanai' tomato plant

B1: GS2297: dsRNA trigger targeting B. cinerea Bcrpb5 (XM_024693733.1); trigger SEQ ID NO 23, RNA 35, reverse complement 47 (nucleic acid, listed as Botrytis cinerea)
sense: UGCACCAUCAGGUCCCGCUCAAAAGAUUAUUCCCGCUGUCGCAUCCGAGACAAGAAUCGAGACCUUCGUCGAGCAAGAUUUACUUGUCAAUAUUACACAUCAUGAAUUGGUUCCCAAGCAUGUUUUGUUAAGUAGAGAAGAGAGGGCCAAGUUGUUGUCAAGAUAUAGAUUGAAGGAUACUCAACUCCCACGUAUUCAGGCUGCGGAUCCAGUUGCAAAAUAUUUGGGAUUGAGAAGAGGGCAGGUCGUUAAGAUUAUCAGAAAGUCGGAAACUGCUGGUCGUUAUGCCAGUUACAGAUUGUGCGUAUAAUGGAGCUGGAGGGUAGAUGAUUUGGUGUUAAUAACUAGGGAGUUUCUUGGGAAAAAUUUGCAUAUUUGGGGAAGGCGUAAUAGGCUGGAAGAAAGACUGAGGAUGAGAUUGUCUAUUUUGGCUUUCCAGGAAGCAAUACUUUGAGACAUGAAAUUUGAUAUUAAAUUUCUUGUUCUGUAUAUUUCUGAUAGUUUCAGAGCUUUUCAAUAAGAUCUAUUCUACAGUUUUAAGAAUCCAGACUCACCCUUUGAGAAGCUCAUACAAAGUUCCUUCCUA
antisense: UAGGAAGGAACUUUGUAUGAGCUUCUCAAAGGGUGAGUCUGGAUUCUUAAAACUGUAGAAUAGAUCUUAUUGAAAAGCUCUGAAACUAUCAGAAAUAUACAGAACAAGAAAUUUAAUAUCAAAUUUCAUGUCUCAAAGUAUUGCUUCCUGGAAAGCCAAAAUAGACAAUCUCAUCCUCAGUCUUUCUUCCAGCCUAUUACGCCUUCCCCAAAUAUGCAAAUUUUUCCCAAGAAACUCCCUAGUUAUUAACACCAAAUCAUCUACCCUCCAGCUCCAUUAUACGCACAAUCUGUAACUGGCAUAACGACCAGCAGUUUCCGACUUUCUGAUAAUCUUAACGACCUGCCCUCUUCUCAAUCCCAAAUAUUUUGCAACUGGAUCCGCAGCCUGAAUACGUGGGAGUUGAGUAUCCUUCAAUCUAUAUCUUGACAACAACUUGGCCCUCUCUUCUCUACUUAACAAAACAUGCUUGGGAACCAAUUCAUGAUGUGUAAUAUUGACAAGUAAAUCUUGCUCGACGAAGGUCUCGAUUCUUGUCUCGGAUGCGACAGCGGGAAUAAUCUUUUGAGCGGGACCUGAUGGUGCA
- Disease state compared to treatment with the chemical standard (AUDPC) [1]: no significant difference
- % control ([2]; 8 g ai/ha): 6%
- % control ([2]; 25 g ai/ha): 29%

From patent US20230189818A1, “RNA-BASED CONTROL OF BOTRYTIS” (priority 2021, published 2023)
